Results as given in US20160222114A1 (published 2016).

T1: cynomolgus BTLA expressed on CHO cells (cynomolgus, UniProt A0A2K5W7M7 31-289)
T1 construct: whole, on cells; also called cyno BTLA; CHO cells expressing cynomolgus BTLA
T1 sequence: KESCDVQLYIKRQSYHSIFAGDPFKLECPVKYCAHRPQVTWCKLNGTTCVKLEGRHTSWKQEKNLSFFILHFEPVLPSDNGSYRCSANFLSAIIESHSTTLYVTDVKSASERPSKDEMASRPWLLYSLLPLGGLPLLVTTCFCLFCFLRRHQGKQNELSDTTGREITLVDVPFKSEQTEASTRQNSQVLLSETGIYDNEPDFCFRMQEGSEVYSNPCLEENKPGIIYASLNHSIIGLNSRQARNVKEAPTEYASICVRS

T2: human BTLA (analyte of the BIAcore measurements) (human, UniProt Q7Z6A9 31-156, limits assumed)
T2 sequence: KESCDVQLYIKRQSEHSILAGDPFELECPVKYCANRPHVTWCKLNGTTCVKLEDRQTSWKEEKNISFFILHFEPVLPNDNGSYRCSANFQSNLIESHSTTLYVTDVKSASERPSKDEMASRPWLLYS


What was measured:
[1] = target: human BTLA, endogenous protein of peripheral blood B and T cells of healthy donors (human, UniProt Q7Z6A9 31-289); test: cell-based or functional assay
[2] = target: T1, cynomolgus BTLA expressed on CHO cells; test: flow cytometry on CHO cells expressing cynomolgus BTLA, PE-anti-huFc detection
[3] = target: T2, human BTLA (analyte of the BIAcore …); test: BIAcore surface plasmon resonance
[4] = target: T2, human BTLA (analyte of the BIAcore …); test: BIAcore, antibody captured on an anti-CH1 chip
Text: For BIAcore, the test antibodies were captured on an anti-CH1 chip.

[5] = target: T2, human BTLA (analyte of the BIAcore …); test: BIAcore

Binder | relative potency of the Fab′ against the full Mab [1] | EC50 [2] | Kd [3] | koff [4] | kon [4] | koff [5] | kon [5]
hu Mab8D5 Fab' fragment (Fab, V domains shown) VH: EVQLVESGGGLVQPGGSLRLSCAASGFTISSYDMHWVRQATGKGLEWVSVIGPAGDTYYPGSVKGRFTISRENAKNSLYLQMNSLRAGDTAVYYCAREGMAAHNYYGMDVWGQGTTVTVSS VL: not shown | ~10 fold less |  |  |  |  |  | 
hu Mab8D5 G1 (IgG1 version of 8D5) (antibody, V domains shown, same variable regions as hu Mab8D5; also called IgG1 version of hu Mab8D5; 8D5 IgG1 Mab) VH: EVQLVESGGGLVQPGGSLRLSCAASGFTISSYDMHWVRQATGKGLEWVSVIGPAGDTYYPGSVKGRFTISRENAKNSLYLQMNSLRAGDTAVYYCAREGMAAHNYYGMDVWGQGTTVTVSS VL: not shown |  | ~12 nM |  |  |  |  | 
hu Mab8D5 (IgG4 version of 8D5, fully human monoclonal agonist anti-BTLA antibody) (antibody, V domains shown, Rest: human IgG4/kappa; Re-expressed in CHO-S cells; also called hu Mab8D5 G4; 8D5 (G4) agonist) VH: EVQLVESGGGLVQPGGSLRLSCAASGFTISSYDMHWVRQATGKGLEWVSVIGPAGDTYYPGSVKGRFTISRENAKNSLYLQMNSLRAGDTAVYYCAREGMAAHNYYGMDVWGQGTTVTVSS VL: not shown |  | ~12 nM | ~2 nM | 0.00019 s⁻¹ | 79000 M⁻¹ s⁻¹ | 0.000137 s⁻¹ | 45800 M⁻¹ s⁻¹
